Laboratory results reported in PMC11237401.

How the values were obtained:
[1] = molecular target: DivIC; experiment: BACTH (bacterial adenylate cyclase-based two-hybrid); details: T18 fusion: Gp11 or mutant; T25 fusion: DivIC; parent: est. 5500; read off a plot
[2] = molecular target: MurG (UniProt Q2FYL5); experiment: as above; details: T18 fusion: Gp11 or mutant; T25 fusion: MurG; parent: est. 5300; read off a plot
Sequence of UniProt Q2FYL5 (Q2FYL5 whole entry, the tested form may be a part): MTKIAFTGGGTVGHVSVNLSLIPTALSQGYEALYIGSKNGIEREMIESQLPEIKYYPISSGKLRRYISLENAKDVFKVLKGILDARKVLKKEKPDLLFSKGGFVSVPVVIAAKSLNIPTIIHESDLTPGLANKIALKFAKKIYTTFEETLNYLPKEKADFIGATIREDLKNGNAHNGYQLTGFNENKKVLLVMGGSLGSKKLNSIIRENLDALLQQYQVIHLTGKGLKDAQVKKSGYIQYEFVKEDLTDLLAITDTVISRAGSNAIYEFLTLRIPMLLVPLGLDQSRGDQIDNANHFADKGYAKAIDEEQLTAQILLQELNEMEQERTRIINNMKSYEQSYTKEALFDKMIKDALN

Substance	response [1] [Miller Units]	response [2] [Miller Units]
Gp11 A38E	1900	150
Gp11 G36R	100	100
Gp11 S33L	3200	1600
